Substrate: CCCCCCCCCCCCCC(=O)SCCNC(=O)CCNC(=O)[C@H](O)C(C)(C)COP(=O)(O)OP(=O)(O)OC[C@H]1O[C@@H](n2cnc3c(N)ncnc32)[C@H](O)[C@@H]1OP(=O)(O)O
Assay: purified protein

Protein	Km [µM]
C. elegans NMT (CeNMT, myristoyl-CoA:protein N-myristoyltransferase) (Caenorhabditis elegans) (protein) MSHGHSHDGAPCGGHHGDDGAGGSRPSVNDVQALVDQLRLAGVDVSNMPNIPTAPRDMDEARSKSFQFWSTQPVPQMDETVPADVNCAIEENIALDKVRAEPFSLPAGFRWSNVDLSDEEQLNELYNLLTRNYVEDDDSMFRFDYSADFLKWALQVPGFRPEWHCGVRADSNNRLLAFIGAVPQTVRVYDKTVNMVEINFLCVHKNLRSRRVAPVLIREITRRVNVTGIFQAAFTAGIVIPKPVSVCRYYHRSLNPRKLIDVRFSHLSAKMTMARTIKLYKLPEETATRNLREMKSTDVPQVFKLLTTSLKQYSLAPVYNSEEELAHALVPKKGVVYSYVAENQNGKITDFVSFYSLPSTVMGHTTHKTIYAAYLYYYVAGSVTPKQLINDSLILANREKFDVFNALDLMHNEKIFSDLKFGKGDGNLQYYLYNWKCADMKPSQIGLVLQ	12.2
B. malayi NMT (BmNMT, myristoyl-CoA:protein N-myristoyltransferase) (Brugia malayi) (protein) MKEPPAGNIKLDDEDEKMMAAGNSKMDQNNDKENDAGDESIQNVTGRNSPTAVIDLKELTESTLMKKFEMLTVGGTSAAKHITEAQRHKYLFWDTQPVPKINEMVTENRAIEPPLDISEVREEPFSLPDPFCWCDIEINSVKELTELYTLLTENYVEDDDNMFRFDYSPEFLLWALKAPGWMKNWHCGVRAKSNGKLIAFISAIPSVIRVYDKQIKMVEINFLCVHKKLRSKRVAPVLIREITRRVNREGIFQAVFTAGVVLPKPIATCRYWHRSLNPKKLIEVKFSHLSRKMTMQRTLKLYKLPDHPRTANLVPMKKCHIDGAYGLLQCYLKKFDLSPQFTRADFEHFFMPREDVIYSYVALNEEDSKVSDLISFYSLPSSVMHHPQYKSIRAAYSFYNVATSVTLKQLINDALILARNCGFDVFNALDLMDNKEILEDLKFGIGDGNLQYYLYNWKCPDIIPEKIGLVLQ	4.4

From PMC4154664
